Measurements: patent US7018836 (UNIVERSITY OF IOWA RESEARCH FOUNDATION, dated 2006)

Target: T1, HIS-tagged human P-TEFb small subunit PITALRE (human, UniProt P50750 1-372)
T1 construct: also called HBS; HIS-tagged human kinase subunit (PITALRE)
Test: co-expression in baculovirus, co-recovery with the HIS-tagged small subunit from a nickel column

T1 sequence (P50750 whole entry): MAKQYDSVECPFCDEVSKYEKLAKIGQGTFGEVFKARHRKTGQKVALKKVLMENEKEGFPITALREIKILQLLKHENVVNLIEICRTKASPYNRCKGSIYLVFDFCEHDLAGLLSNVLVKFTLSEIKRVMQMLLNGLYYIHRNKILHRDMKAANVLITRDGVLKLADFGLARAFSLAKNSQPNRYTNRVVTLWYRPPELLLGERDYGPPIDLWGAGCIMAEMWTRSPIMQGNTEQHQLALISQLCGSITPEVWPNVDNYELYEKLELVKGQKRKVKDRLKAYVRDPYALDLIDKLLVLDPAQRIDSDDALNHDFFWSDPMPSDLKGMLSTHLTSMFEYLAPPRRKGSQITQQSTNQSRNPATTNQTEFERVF

B1: Drosophila P-TEFb small subunit with a HIS-tag at the carboxyl-terminus (enzyme)
chain: MAHMSHMLQQPSGSTPSNVGSSSSRTMSLMEKQKYIEDYDFPYCDESNKYEKVAKIGQGTFGEVFKAREKKGNKKFVAMKKVLMDNEKEGFPITALREIRILQLLKHENVVNLIEICRTKATATNGYRSTFYLVFDFCEHDLAGLLSNMNVKFSLGEIKKVMQQLLNGLYYIHSNKILHRDMKAANVLITKHGILKLADFGLARAFSIPKNESKNRYTNRVVTLWYRPPELLLGDRNYGPPVDMWGAGCIMAEMWTRSPIMQGNTEQQQLTFISQLCGSFTPDVWPGVEELELYKSIELPKNQKRRVKERLRPYVKDQTGCDLLDKLLTLDPKKRIDADTALNHDFFWTDPMPSDLSKMLSQHLQSMFEYLAQPRRSNQMRNYHQQLTTMNQKPQDNSMIDRVW
notes: also called DBS; Drosophila P-TEFb small (kinase) subunit; not shown: HIS-tag added to the carboxyl-terminus
  binding result: no binding
